# According to patent US20190212291:
# T1: PEG-T7-Q
# T1 chain: GGPLGVRGKKC
# B1: KLK4 (protein)
# chain: IINGEDCSPHSQPWQAALVMENELFCSGVLVHPQWVLSAAHCFQNSYTIGLGLHSLEADQEPGSQMVEASLSVRHPEYNRPLLANDLMLIKLDESVSESDTIRSISIASQCPTAGNSCLVSGWGLLANGRMPTVLQCVNVSVVSEEVCSKLYDPLYHPSMFCAGGGHDQKDSCNGDSGGPLICNGYLQGLVSFGKAPCGQVGVPGVYTNLCKFTEWIEKTVQAS
# B2: KLK14 (protein)
# chain: IIGGHTCTRSSQPWQAALLAGPRRRFLCGGALLSGQWVITAAHCGRPILQVALGKHNLRRWEATQQVLRVVRQVTHPNYNSRTHDNDLMLLQLQQPARIGRAVRPIEVTQACASPGTSCRVSGWGTISSPIARYPASLQCVNINISPDEVCQKAYPRTITPGMVCAGVPQGGKDSCQGDSGGPLVCRGQLQGLVSWGMERCALPGYPGVYTNLCKYRSWIEETMRDK
# B3: PRSS3 (protein)
# chain: IVGGYTCEENSLPYQVSLNSGSHFCGGSLISEQWVVSAAHCYKTRIQVRLGEHNIKVLEGNEQFINAAKIIRHPKYNRDTLDNDIMLIKLSSPAVINARVSTISLPTTPPAAGTECLISGWGNTLSFGADYPDELKCLDAPVLTQAECKASYPGKITNSMFCVGFLEGGKDSCQRDSGGPVVCNGQLQGVVSWGHGCAWKNRPGVYTKVYNYVDWIKDTIAANS
# B4: KLK12 (protein)
# chain: IFNGTECGRNSQPWQVGLFEGTSLRCGGVLIDHRWVLTAAHCSGSRYWVRLGEHSLSQLDWTEQIRHSGFSVTHPGYLGASTSHEHDLRLLRLRLPVRVTSSVQPLPLPNDCATAGTECHVSGWGITNHPRNPFPDLLQCLNLSIVSHATCHGVYPGRITSNMVCAGGVPGQDACQGDSGGPLVCGGVLQGLVSWGSVGPCGQDGIPGVYTYICKYVDWIRMIMRNN
# B5: MMP26 (protein)
# chain: TSISPGRCKWNKHTLTYRIINYPHDMKPSAVKDSIYNAVSIWSNVTPLIFQQVQNGDADIKVSFWQWAHEDGWPFDGPGGILGHAFLPNSGNPGVVHFDKNEHWSASDTGYNLFLVATHEIGHSLGLQHSGNQSSIMYPTYWYHDPRTFQLSADDIQRIQHLYGEKCSSDIP
# B6: MMP11 (protein)
# chain: FVLSGGRWEKTDLTYRILRFPWQLVQEQVRQTMAEALKVWSDVTPLTFTEVHEGRADIMIDFARYWHGDDLPFDGPGGILAHAFFPKTHREGDVHFDYDETWTIGDDQGTDLLQVAAHEFGHVLGLQHTTAAKALMSAFYTFRYPLSLSPDDCRGVQHLYGQPWPTVTSRTPALG
# B7: ADAM12 (protein)
# chain: ETLKATKYVELVIVADNREFQRQGKDLEKVKQRLIEIANHVDKFYRPLNIRIVLVGVEVWNDMDKCSVSQDPFTSLHEFLDWRKMKLLPRKSHDNAQLVSGVYFQGTTIGMAPIMSMCTADQSGGIVMDHSDNPLGAAVTLAHELGHNFGMNHDTLDRGCSCQMAVEKGGCIMNASTGYPFPMVFSSCSRKDLETSLEKGMGVCLFNLPEVRESFGGQKCGNRFVEEGEECDCGEPEECMNRCCNATTCTLKPDAVCAHGLCCEDCQLKPAGTACRDSSNSCDLPEFCTGASPHCPANVYLHDGHSCQDVDGYCYNGICQTHEQQCVTLWGPGAKPAPGICFERVNSAGDPYGNCGKVSKSSFAKCEMRDAKCGKIQCQGGASRPVIGTNAVSIETNIPLQQGGRILCRGTHVYLGDDMPDPGLVLAGTKCADGKICLNRQCQNISVFGVHECAMQCHGRGVCNNRKNCHCEAHWAPPFCDKFGFGGSTDSGPIRQADNQG
# Tests used:
# [1] = target: PEG-T51-Q
# [2] = target: PEG-T50-Q
# [3] = target: PEG-T49-Q
# [4] = target: PEG-T58-Q
# [5] = target: PEG-T53-Q
# [6] = target: T1, PEG-T7-Q
# [7] = target: PEG-T40-Q
# [8] = target: PEG-T54-Q
# [9] = target: PEG-T41-Q
protein,measurement,setting,value
B1,Top hit (cleavage of PEG-coupled FRET substrate by recombinant proteases),[1],KLK4
same,substrate cleavage,[1],"T40 and T51 are cleaved by MMP26 and KLK4, respectively"
B2,Top hit (cleavage of PEG-coupled FRET substrate by recombinant proteases),[2],KLK14
same,Top hit (cleavage of PEG-coupled FRET substrate by recombinant proteases),[3],KLK14
B3,Second hit (cleavage of PEG-coupled FRET substrate by recombinant proteases),[3],PRSS3
same,Second hit (cleavage of PEG-coupled FRET substrate by recombinant proteases),[4],PRSS3
B4,Second hit (cleavage of PEG-coupled FRET substrate by recombinant proteases),[2],KLK12
B5,Second hit (cleavage of PEG-coupled FRET substrate by recombinant proteases),[5],MMP26
same,Second hit (cleavage of PEG-coupled FRET substrate by recombinant proteases),[6],MMP26
same,Top hit (cleavage of PEG-coupled FRET substrate by recombinant proteases),[7],MMP26
same,substrate cleavage,[7],"T40 and T51 are cleaved by MMP26 and KLK4, respectively"
B6,Top hit (cleavage of PEG-coupled FRET substrate by recombinant proteases),[5],MMP11
B7,Top hit (cleavage of PEG-coupled FRET substrate by recombinant proteases),[8],ADAM12
same,Second hit (cleavage of PEG-coupled FRET substrate by recombinant proteases),[7],ADAM12
same,Top hit (cleavage of PEG-coupled FRET substrate by recombinant proteases); additional note: Poorly cleaved,[9],ADAM12
